{
  "source": "paper PMC3526269",
  "about": "“Demethylation initiated by ROS1 glycosylase involves random sliding along DNA”",
  "key": {"[1]": {"molecular_target": "T1, NΔ294-ROS1 (Arabidopsis, UniProt Q9SJQ6 295-1393, del1-294)", "T1 sequence": "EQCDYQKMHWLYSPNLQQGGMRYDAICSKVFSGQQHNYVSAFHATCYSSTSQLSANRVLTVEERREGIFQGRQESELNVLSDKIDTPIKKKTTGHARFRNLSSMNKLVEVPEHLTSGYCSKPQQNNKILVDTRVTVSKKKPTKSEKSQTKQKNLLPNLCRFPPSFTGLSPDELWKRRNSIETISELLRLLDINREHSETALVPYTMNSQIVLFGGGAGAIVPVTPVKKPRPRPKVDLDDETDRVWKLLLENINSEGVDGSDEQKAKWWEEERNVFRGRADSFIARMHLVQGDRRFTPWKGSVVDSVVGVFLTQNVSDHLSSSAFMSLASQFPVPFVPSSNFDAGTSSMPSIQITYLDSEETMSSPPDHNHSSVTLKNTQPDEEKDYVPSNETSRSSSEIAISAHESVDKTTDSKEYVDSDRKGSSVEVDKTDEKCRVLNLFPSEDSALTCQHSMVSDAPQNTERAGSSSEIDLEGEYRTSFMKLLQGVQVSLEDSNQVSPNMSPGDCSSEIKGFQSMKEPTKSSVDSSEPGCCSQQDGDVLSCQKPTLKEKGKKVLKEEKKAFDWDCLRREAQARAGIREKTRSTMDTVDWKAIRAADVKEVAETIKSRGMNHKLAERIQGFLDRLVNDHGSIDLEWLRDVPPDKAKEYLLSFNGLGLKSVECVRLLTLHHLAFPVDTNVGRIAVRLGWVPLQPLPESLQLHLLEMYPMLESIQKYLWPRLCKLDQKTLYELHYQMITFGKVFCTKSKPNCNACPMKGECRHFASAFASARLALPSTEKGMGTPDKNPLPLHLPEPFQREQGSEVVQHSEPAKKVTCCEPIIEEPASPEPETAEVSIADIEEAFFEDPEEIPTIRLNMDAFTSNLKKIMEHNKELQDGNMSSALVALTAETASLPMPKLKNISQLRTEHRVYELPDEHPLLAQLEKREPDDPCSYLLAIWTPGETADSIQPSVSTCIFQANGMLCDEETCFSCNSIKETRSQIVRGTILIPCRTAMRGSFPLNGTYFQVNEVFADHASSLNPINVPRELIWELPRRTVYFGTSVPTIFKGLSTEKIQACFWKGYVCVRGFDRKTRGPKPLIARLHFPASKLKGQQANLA", "assay": "EMSA; dissociates when chased with unlabelled S; needs higher protein than SL1-2; EMSA: 10 nM (so in the source) Tris-HCl pH 8.0, 1 mM DTT, 10 ug/ml BSA, 1 mM EDTA, 25 C, 60 min; 100 nM probe; 0.2% agarose, 1x TAE", "conditions": "protein: recombinant; tags: N-terminal His; label: 5'-fluorescein upper strand"}, "[2]": {"molecular_target": "T2, FL-ROS1 (Arabidopsis, UniProt Q9SJQ6 1-1393)", "T2 sequence": "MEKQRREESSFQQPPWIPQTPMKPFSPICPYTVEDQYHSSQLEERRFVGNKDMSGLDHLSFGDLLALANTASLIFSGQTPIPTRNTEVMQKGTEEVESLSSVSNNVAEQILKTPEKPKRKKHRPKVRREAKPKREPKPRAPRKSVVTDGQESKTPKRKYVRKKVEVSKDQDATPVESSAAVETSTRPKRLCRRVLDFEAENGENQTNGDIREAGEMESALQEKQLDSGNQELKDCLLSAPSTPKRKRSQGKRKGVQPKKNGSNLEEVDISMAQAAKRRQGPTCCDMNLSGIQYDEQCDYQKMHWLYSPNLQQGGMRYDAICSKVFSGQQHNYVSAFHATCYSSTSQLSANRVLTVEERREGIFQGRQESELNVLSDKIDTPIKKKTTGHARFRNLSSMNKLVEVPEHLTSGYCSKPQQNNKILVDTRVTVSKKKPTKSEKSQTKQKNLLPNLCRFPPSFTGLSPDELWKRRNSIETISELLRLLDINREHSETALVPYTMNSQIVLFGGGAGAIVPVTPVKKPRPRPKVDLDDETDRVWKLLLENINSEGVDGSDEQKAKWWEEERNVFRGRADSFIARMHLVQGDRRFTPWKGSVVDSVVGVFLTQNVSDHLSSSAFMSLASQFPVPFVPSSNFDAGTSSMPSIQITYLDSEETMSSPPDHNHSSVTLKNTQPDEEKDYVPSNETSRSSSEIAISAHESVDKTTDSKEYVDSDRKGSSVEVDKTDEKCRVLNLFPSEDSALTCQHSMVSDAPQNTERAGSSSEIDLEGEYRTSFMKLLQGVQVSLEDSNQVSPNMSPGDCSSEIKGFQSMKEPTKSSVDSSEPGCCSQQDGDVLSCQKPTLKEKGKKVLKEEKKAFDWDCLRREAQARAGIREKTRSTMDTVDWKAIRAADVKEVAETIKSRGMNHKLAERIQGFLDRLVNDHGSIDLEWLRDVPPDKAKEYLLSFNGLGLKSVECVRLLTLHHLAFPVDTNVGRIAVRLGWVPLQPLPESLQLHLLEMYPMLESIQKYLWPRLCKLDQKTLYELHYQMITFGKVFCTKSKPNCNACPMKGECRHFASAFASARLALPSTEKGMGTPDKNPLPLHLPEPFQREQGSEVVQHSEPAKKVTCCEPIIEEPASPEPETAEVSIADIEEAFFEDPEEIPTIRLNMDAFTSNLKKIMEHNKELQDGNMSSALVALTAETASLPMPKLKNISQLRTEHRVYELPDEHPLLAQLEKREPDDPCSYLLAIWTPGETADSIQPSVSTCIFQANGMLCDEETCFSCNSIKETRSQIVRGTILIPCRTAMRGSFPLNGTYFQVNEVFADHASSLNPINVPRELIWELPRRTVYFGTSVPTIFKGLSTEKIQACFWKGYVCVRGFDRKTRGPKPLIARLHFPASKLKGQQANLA", "assay": "EMSA; dissociates when chased with unlabelled S; EMSA: 10 nM (so in the source) Tris-HCl pH 8.0, 1 mM DTT, 10 ug/ml BSA, 1 mM EDTA, 25 C, 60 min; 100 nM probe; 0.2% agarose, 1x TAE", "conditions": "protein: recombinant; tags: N-terminal His; label: 5'-fluorescein upper strand"}, "[3]": {"molecular_target": "T2, FL-ROS1", "assay": "EMSA; remains bound when chased with mismatched S; affinity not higher than for S; EMSA: 10 nM (so in the source) Tris-HCl pH 8.0, 1 mM DTT, 10 ug/ml BSA, 1 mM EDTA, 25 C, 60 min; 100 nM probe; 0.2% agarose, 1x TAE", "conditions": "protein: recombinant; tags: N-terminal His; label: 5'-fluorescein upper strand; four-way junction obstacles on both sides; central T:G mispair"}, "[4]": {"molecular_target": "T2, FL-ROS1", "assay": "EMSA; dissociates when chased with mismatched S; EMSA: 10 nM (so in the source) Tris-HCl pH 8.0, 1 mM DTT, 10 ug/ml BSA, 1 mM EDTA, 25 C, 60 min; 100 nM probe; 0.2% agarose, 1x TAE", "conditions": "protein: recombinant; tags: N-terminal His; label: 5'-fluorescein upper strand; central T:G mispair"}, "[5]": {"molecular_target": "T2, FL-ROS1", "assay": "EMSA; remains bound when chased with unlabelled S; affinity not higher than for S; EMSA: 10 nM (so in the source) Tris-HCl pH 8.0, 1 mM DTT, 10 ug/ml BSA, 1 mM EDTA, 25 C, 60 min; 100 nM probe; 0.2% agarose, 1x TAE", "conditions": "protein: recombinant; tags: N-terminal His; label: 5'-fluorescein upper strand; four-way junction obstacles on both sides"}, "[6]": {"molecular_target": "T1, NΔ294-ROS1", "assay": "EMSA; binds at lower concentration than to S; displaced at high competitor S; EMSA: 10 nM (so in the source) Tris-HCl pH 8.0, 1 mM DTT, 10 ug/ml BSA, 1 mM EDTA, 25 C, 60 min; 100 nM probe; 0.2% agarose, 1x TAE", "conditions": "protein: recombinant; tags: N-terminal His; label: 5'-fluorescein upper strand; four-way junction obstacles on both sides"}, "[7]": {"molecular_target": "T1, NΔ294-ROS1", "assay": "EMSA; easier to dissociate by competitor S than FL-ROS1; EMSA: 10 nM (so in the source) Tris-HCl pH 8.0, 1 mM DTT, 10 ug/ml BSA, 1 mM EDTA, 25 C, 60 min; 100 nM probe; 0.2% agarose, 1x TAE", "conditions": "protein: recombinant, tags: N-terminal His, label: 5'-fluorescein upper strand, four-way junction obstacle"}, "[8]": {"molecular_target": "T2, FL-ROS1", "assay": "EMSA; low dissociation with competitor S, slightly higher than SL1-2; EMSA: 10 nM (so in the source) Tris-HCl pH 8.0, 1 mM DTT, 10 ug/ml BSA, 1 mM EDTA, 25 C, 60 min; 100 nM probe; 0.2% agarose, 1x TAE", "conditions": "protein: recombinant, tags: N-terminal His, label: 5'-fluorescein upper strand, four-way junction obstacle"}, "[9]": {"molecular_target": "T2, FL-ROS1", "assay": "EMSA; chase with competitor; similar to methylated SL1-2; EMSA: 10 nM (so in the source) Tris-HCl pH 8.0, 1 mM DTT, 10 ug/ml BSA, 1 mM EDTA, 25 C, 60 min; 100 nM probe; 0.2% agarose, 1x TAE", "conditions": "protein: recombinant; tags: N-terminal His; label: 5'-fluorescein upper strand; four-way junction obstacles on both sides"}, "[10]": {"molecular_target": "T2, FL-ROS1", "assay": "EMSA; chase with competitor; similar to methylated S; EMSA: 10 nM (so in the source) Tris-HCl pH 8.0, 1 mM DTT, 10 ug/ml BSA, 1 mM EDTA, 25 C, 60 min; 100 nM probe; 0.2% agarose, 1x TAE", "conditions": "protein: recombinant; tags: N-terminal His; label: 5'-fluorescein upper strand"}},
  "data": [
    {"binder": "S (5-meC:G) (dsDNA, one central 5-meC in CG context) DNA 1: TCACGCGGGATCAATGTGTTCTTTCAGCTCCGGTCACGCTGACCAGGAATACCTCACTACC DNA 2: GGTAGTGAGGTATTCCTGGTCAGCGTGACCGGAGCTGAAAGAACACATTGATCCCGCGTGA", "values": [
      {"measurement": "binding result", "setting": "[1]", "value": "binds"},
      {"measurement": "binding result", "setting": "[2]", "value": "binds"}
    ]},
    {"binder": "SL1-2 (T:G) (dsDNA) DNA 1: TCACGCGGGATCAATGTGTTCTTTCAGCTCTGGTCACGCTGACCAGGAATACCTCACTACC DNA 2: GGTAGTGAGGTATTCCCCCGTAAGGGTCCGTAAGGATGGTCAGCGTGACCGGAGCTGAAAGAACACCCGTAAGGGTCCGTAAGGACATTGATCCCGCGTGA", "values": [
      {"measurement": "binding result", "setting": "[3]", "value": "binds"}
    ]},
    {"binder": "S (T:G) (dsDNA) DNA 1: TCACGCGGGATCAATGTGTTCTTTCAGCTCTGGTCACGCTGACCAGGAATACCTCACTACC DNA 2: GGTAGTGAGGTATTCCTGGTCAGCGTGACCGGAGCTGAAAGAACACATTGATCCCGCGTGA", "values": [
      {"measurement": "binding result", "setting": "[4]", "value": "binds"}
    ]},
    {"binder": "SL1-2 (5-meC:G) (dsDNA, one central 5-meC in CG context) DNA 1: TCACGCGGGATCAATGTGTTCTTTCAGCTCCGGTCACGCTGACCAGGAATACCTCACTACC DNA 2: GGTAGTGAGGTATTCCCCCGTAAGGGTCCGTAAGGATGGTCAGCGTGACCGGAGCTGAAAGAACACCCGTAAGGGTCCGTAAGGACATTGATCCCGCGTGA", "values": [
      {"measurement": "binding result", "setting": "[5]", "value": "binds"},
      {"measurement": "binding result", "setting": "[6]", "value": "binds"}
    ]},
    {"binder": "SL1 (5-meC:G) (dsDNA, one central 5-meC in CG context) DNA 1: TCACGCGGGATCAATGTGTTCTTTCAGCTCCGGTCACGCTGACCAGGAATACCTCACTACC DNA 2: GGTAGTGAGGTATTCCCCCGTAAGGGTCCGTAAGGATGGTCAGCGTGACCGGAGCTGAAAGAACACATTGATCCCGCGTGA", "values": [
      {"measurement": "binding result", "setting": "[7]; left", "value": "binds"},
      {"measurement": "binding result", "setting": "[8]; left", "value": "binds"}
    ]},
    {"binder": "SL1-2 (homoduplex, no target) (dsDNA) DNA 1: TCACGCGGGATCAATGTGTTCTTTCAGCTCCGGTCACGCTGACCAGGAATACCTCACTACC DNA 2: GGTAGTGAGGTATTCCCCCGTAAGGGTCCGTAAGGATGGTCAGCGTGACCGGAGCTGAAAGAACACCCGTAAGGGTCCGTAAGGACATTGATCCCGCGTGA", "values": [
      {"measurement": "binding result", "setting": "[9]", "value": "binds"}
    ]},
    {"binder": "S (homoduplex, no target) (dsDNA) DNA 1: TCACGCGGGATCAATGTGTTCTTTCAGCTCCGGTCACGCTGACCAGGAATACCTCACTACC DNA 2: GGTAGTGAGGTATTCCTGGTCAGCGTGACCGGAGCTGAAAGAACACATTGATCCCGCGTGA", "values": [
      {"measurement": "binding result", "setting": "[10]", "value": "binds"}
    ]},
    {"binder": "SL2 (5-meC:G) (dsDNA, one central 5-meC in CG context) DNA 1: TCACGCGGGATCAATGTGTTCTTTCAGCTCCGGTCACGCTGACCAGGAATACCTCACTACC DNA 2: GGTAGTGAGGTATTCCTGGTCAGCGTGACCGGAGCTGAAAGAACACCCGTAAGGGTCCGTAAGGACATTGATCCCGCGTGA", "values": [
      {"measurement": "binding result", "setting": "[7]; right", "value": "binds"},
      {"measurement": "binding result", "setting": "[8]; right", "value": "binds"}
    ]}
  ]
}
